The source of these data is patent US20050142582, “Aptamers and methods for their in vitro selection and uses thereof” (The Regents of the University of California, published 2005).

One series deals with BSA (UniProt P02769 P02769:25-607). Briefly: ELONA; PBS-T, 4 C overnight. The settings on record: label: biotin.
Series [1] has as its target T1, TTF1 (thyroid transcription factor 1) (Ciona intestinalis, UniProt O96738 O96738:1-477).
T1 sequence: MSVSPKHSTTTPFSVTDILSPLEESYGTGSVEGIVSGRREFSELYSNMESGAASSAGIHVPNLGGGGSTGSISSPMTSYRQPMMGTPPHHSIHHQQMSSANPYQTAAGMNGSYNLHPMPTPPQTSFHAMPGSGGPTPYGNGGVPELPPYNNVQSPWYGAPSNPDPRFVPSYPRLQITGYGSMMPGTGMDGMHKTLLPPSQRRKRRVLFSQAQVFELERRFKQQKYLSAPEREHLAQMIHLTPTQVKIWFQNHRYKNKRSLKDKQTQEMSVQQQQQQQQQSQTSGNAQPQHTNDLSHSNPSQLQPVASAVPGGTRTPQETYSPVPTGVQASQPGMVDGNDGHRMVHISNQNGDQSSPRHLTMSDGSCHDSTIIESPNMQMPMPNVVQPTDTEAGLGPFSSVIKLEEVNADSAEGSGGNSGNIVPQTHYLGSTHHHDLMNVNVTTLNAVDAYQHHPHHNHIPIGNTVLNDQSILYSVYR
Briefly: SPR; kinetic global fit 1:1; steady-state Kd 5.14 nM; HBS-P pH 7.5, 150 mM NaCl. The settings on record: tags: N-terminal His6 plus factor Xa site (pNHis vector), E. coli; label: biotin. How it is done:
(§1) The affinity, as described by the KD, was determined by a global fit using the kinetic simultaneous kₐ/kd model, assuming Langmuir (1:1) binding.
(§2) BIAcore surface plasmon resonance. The affinity of the aptamers for their protein targets was measured using surface plasmon resonance (SPR) with a BIAcore X instrument (BIAcore, Piscataway, N.J.). Biotinylated aptamer (QIAGEN Operon, Alameda, Calif.) was diluted to 0.5 ng/μL in HBS-P (10 mM HEPES, pH 7.5, 150 mM NaCl, 0.05% Tween 20), heated to 95° C., and rapidly cooled at 4° C. before use. Approximately 100 RU of biotinylated aptamer (ligand) was immobilized to one flow cell of a streptavidin coated sensor chip. Purified TTF1 protein was diluted into HBS-P to give a series of concentrations of TTF1 protein (3, 12, 31, 62, 125, 250 nM or 2.5, 5, 10, 20, 40, 100 nM) that were injected over the surface for 2 min at a flow rate of 20 μL/min (to minimize mass transfer limitations). Bulk shift and non-specific interactions with the streptavidin were subtracted using the response from a reference flow cell. […] The affinity, as described by the equilibrium dissociation constant (KD), was determined globally by fitting to the kinetic simultaneous kₐ/kd model, assuming Langmuir (1:1) binding. The steady-state affinity was determined from curve-fitting to a plot of the Req values, derived from sensorgrams fitted locally, against the concentrations.
For orientation: Surface plasmon resonance follows binding to a sensor surface in real time, without labels.

Series [2] concerns the target XF1293 (hypothetical conserved protein) (Xylella fastidiosa, UniProt Q9PDT6 Q9PDT6:1-231). The series is described as follows: SPR. The conditions noted are these: tags: His6, E. coli; label: biotin.
The target in series [3] is XF0749 (virulence regulator) (Xylella fastidiosa, UniProt Q9PFC9 Q9PFC9:1-134). Briefly: SPR. The conditions noted are these: tags: His6, E. coli; label: biotin.
Series [4] deals with T1, TTF1 (thyroid transcription factor 1). The series is described as follows: SPR; kinetic global fit 1:1; steady-state Kd 65.6 nM; HBS-P pH 7.5, 150 mM NaCl. The settings on record: tags: N-terminal His6 plus factor Xa site (pNHis vector), E. coli; label: biotin. Here is the method:
as §1, §2

BSA, sequence (P02769 25-607, one chain of several): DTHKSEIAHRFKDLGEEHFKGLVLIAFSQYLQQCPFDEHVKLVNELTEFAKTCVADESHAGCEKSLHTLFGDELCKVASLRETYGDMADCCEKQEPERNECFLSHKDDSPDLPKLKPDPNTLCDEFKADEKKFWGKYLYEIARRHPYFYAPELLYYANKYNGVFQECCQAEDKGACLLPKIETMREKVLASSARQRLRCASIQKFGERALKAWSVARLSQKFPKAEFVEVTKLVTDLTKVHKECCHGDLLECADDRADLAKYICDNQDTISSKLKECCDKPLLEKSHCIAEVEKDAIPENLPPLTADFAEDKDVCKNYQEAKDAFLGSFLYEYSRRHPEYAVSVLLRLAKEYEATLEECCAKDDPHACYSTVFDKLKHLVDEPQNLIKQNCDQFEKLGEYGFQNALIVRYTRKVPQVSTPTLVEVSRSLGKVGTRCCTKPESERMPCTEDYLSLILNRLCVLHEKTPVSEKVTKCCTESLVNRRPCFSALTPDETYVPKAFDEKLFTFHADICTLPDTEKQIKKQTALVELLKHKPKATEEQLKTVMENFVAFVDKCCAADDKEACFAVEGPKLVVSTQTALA

B1: TTF1 Aptamer A (ssDNA)
DNA: GGTATTGAGGGTCGCATCTCAAAAGGGGTGATTGCTTGCACAATGACAGGGTAGGACAGATGGCTCTAACTCTCCTCT
Regarding B1, the binding result with BSA was “no binding”. In series [1], the Kd was 3.36 nM.

B2: 6H5 (ssDNA)
DNA: GGTATTGAGGGTCGCATCGGCTTCAGGTTGGTCTGGTTGGGTTTGGCTCCTGTGTACGGATGGCTCTAACTCTCCTCT
Molecule B2 returned a Kd in series [2] of 30 nM.

B3: 6H1 (ssDNA)
DNA: GGTATTGAGGGTCGCATCGGCAAAAAGGATTGCCCAGGTCTGCTGTCTAGCCGGATTCGATGGCTCTAACTCTCCTCT
B3 showed a Kd in series [2] of 0.08 nM.

B4: 6H7 (ssDNA)
DNA: GGTATTGAGGGTCGCATCGCTATGGGTGGTCTGGTTGGGATTGGCCCCGGGAGCTGGCGATGGCTCTAACTCTCCTCT
Regarding B4, the Kd in series [2] was found to be 0.4 nM; in series [3], 42 nM.

B5: TTF1 Aptamer C (ssDNA)
DNA: GGTATTGAGGGTCGCATCTGGCTAGTGGGTAAGGGGCGGGAGGGTGACAGGGCGATCCGATGGCTCTAACTCTCCTCT
For B5, the dissociation constant Kd in series [4] turned out to be 32.5 nM.

By Kd is commonly meant the free concentration of one partner at which half of the binding sites on the other are occupied at equilibrium, for simple one-to-one binding.
